Source: patent US20190077860A1 (EISAI R AND D MANAGEMENT, published 2019)

What was measured:
[1] = target: T1, human EphA4 extracellular region-SEAP-His protein (human, UniProt P54764 20-547); experiment: competition ELISA, competitor human Ephrin A5-Fc
T1 construct: also called hEphA4-SEAP-His
Description: Each anti-EphA4 monoclonal humanized antibody obtained in Example 16 was evaluated for its inhibitory activity against the binding between human EphA4 and its human ligand according to the following steps. Each well of a 96-well plate (Nunc) was coated with an anti-alkaline phosphatase antibody (Thermo Fisher Scientific). After incubation overnight at 4° C., each well was blocked with 1% BlockAce (DS Pharma Biomedical) at room temperature for 1 hour. After washing with 0.05% Tween 20/PBS (Thermo Fisher Scientific) three times, the human EphA4 extracellular region-SEAP-His protein obtained by the method of Example 2 was added (final concentration: 10 nM) to each well and incubated at room temperature for 1 hour. After washing three times, a ligand and each serially diluted humanized antibody of antibody A (0, 0.003, 0.01, 0.03, 0.1, 0.3, 1, 3, 10, 30, 100, 300, 1000, and 3000 nM) were added to each well. The ligand used was biotinylated human Ephrin A5-Fc chimera (R&D Systems, final concentration: 0.7 nM). After incubation at room temperature for 1 hour and subsequent washing three times, horseradish peroxidase-labeled streptavidin (GE Healthcare) was added thereto and incubated at room temperature for 1 hour. After washing three times, a TMBZ (3,3′,5,5′-tetramethylbenzidine, Sigma-Aldrich) solution was added to each well and incubated at room temperature for 2 minutes. An equal amount of a reaction stopping solution (1N H₂SO₄, Wako Pure Chemical Industries) was added to each well. The absorbance at 450 nm was read using a microplate reader (PerkinElmer).

[2] = target: T1, human EphA4 extracellular …; experiment: SPR, Ab captured
Description: The binding affinity of each anti-EphA4 monoclonal humanized antibody obtained in Example 16 for human EphA4 was determined by surface plasmon resonance (SPR) using Biacore T200 (GE Healthcare). First, for the assay of antibody A, a rat anti-mouse IgG₁ antibody produced with a conventional method by immunizing rat with mouse IgG₁ antibody was immobilized on sensor chip CM5. The immobilization of the rat anti-mouse IgG1 antibody on sensor chip CM5 was performed by the amine coupling method using N-hydroxysuccinimide (NHS) and N-ethyl-N′-(3-dimethylaminopropyl)carbodiimide hydrochloride (EDC). Ethanolamine was used in blocking (the sensor chip and the reagents for immobilization were all manufactured by GE Healthcare). The antibody was diluted with a buffer solution for immobilization (10 mM sodium acetate, pH 4.5) and immobilized on the sensor chip according to the protocol attached to Biacore T200. For the assay of each humanized monoclonal antibody, a protein A chip (GE Healthcare, 29-1383-03) was used. Antibody A or the humanized monoclonal antibody was diluted with a running buffer solution HBS-EP (GE Healthcare), injected onto only flow cell 2 for 120 seconds, and captured (captured amount: approximately 30 to 60 RU). Subsequently, human EphA4 extracellular region-SEAP-His protein serially diluted in the range of 50, 16.7, 5.6, 1.9, and 0.6 nM using HBS-EP was sequentially added from the lower toward higher concentration sides without regeneration operation. Binding reaction curves were sequentially observed at the time of the addition (association phase, for 120 sec) and after the completion of the addition (dissociation phase, for 900 sec). After the completion of each observation, the sensor chip was regenerated by the addition of 3 M MgCl₂ (for 60 sec) or 10 mM Glycine-HCl pH 1.5 (for 30 sec). The obtained binding reaction curves were subjected to fitting analysis with 1:1 binding models using software BIA evaluation attached to the system to calculate the affinity (KD=kd/ka) for human EphA4 (Table 6).

T1 sequence (P54764 20-547): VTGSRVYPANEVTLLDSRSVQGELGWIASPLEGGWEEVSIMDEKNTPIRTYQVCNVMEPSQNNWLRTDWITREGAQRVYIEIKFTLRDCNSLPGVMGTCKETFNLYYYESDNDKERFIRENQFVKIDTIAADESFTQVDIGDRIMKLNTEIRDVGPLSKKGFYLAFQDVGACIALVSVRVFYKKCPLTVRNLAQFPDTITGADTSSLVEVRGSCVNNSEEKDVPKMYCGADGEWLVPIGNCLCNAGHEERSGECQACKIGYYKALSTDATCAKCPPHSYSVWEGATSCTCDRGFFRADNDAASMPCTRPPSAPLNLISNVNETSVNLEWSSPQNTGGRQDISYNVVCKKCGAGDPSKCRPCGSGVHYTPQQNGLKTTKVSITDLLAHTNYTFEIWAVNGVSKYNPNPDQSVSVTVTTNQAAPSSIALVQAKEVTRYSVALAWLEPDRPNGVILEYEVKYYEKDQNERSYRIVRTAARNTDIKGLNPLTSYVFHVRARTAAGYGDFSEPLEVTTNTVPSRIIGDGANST

IC50 [1] [nM]	Kd [2] [nM]	koff [2] [s⁻¹]	kon [2] [M⁻¹ s⁻¹]	Binder
2.5	0.82	0.00023	280000	humanized antibody No. 71 (antibody, human IgG1, kappa, human Ig kappa; also called L2-4/HA4) heavy: QIQLVQSGSELKKPGASVKVSCKASGYTFTDYSMHWVRQAPGQGLKWMGWINTETGEPTYAQGFTGRFVFSLDTSVSTAYLQISSLKAEDTAVYYCARIPLYYYGSRYWYFDVWGQGTTVTVSSASTKGPSVFPLAPSSKSTSGGTAALGCLVKDYFPEPVTVSWNSGALTSGVHTFPAVLQSSGLYSLSSVVTVPSSSLGTQTYICNVNHKPSNTKVDKRVEPKSCDKTHTCPPCPAPPAAAPSVFLFPPKPKDTLMISRTPEVTCVVVDVSHEDPEVQFNWYVDGVEVHNAKTKPREEQFNSTFRVVSVLTVVHQDWLNGKEYKCKVSNKGLPAPIEKTISKTKGQPREPQVYTLPPSREEMTKNQVSLTCLVKGFYPSDIAVEWESNGQPENNYKTTPPMLDSDGSFFLYSKLTVDKSRWQQGNVFSCSVMHEALHNHYTQKSLSLSPG light: EIVMTQSPATLSVSPGERATLSCRASENIYRNLAWYQQKPGQSPRLLIYAATNLADGIPARFSGSGSGTEYTLTISSLQSEDFAVYYCQHFWGTPWTFGQGTKVEIKRTVAAPSVFIFPPSDEQLKSGTASVVCLLNNFYPREAKVQWKVDNALQSGNSQESVTEQDSKDSTYSLSSTLTLSKADYEKHKVYACEVTHQGLSSPVTKSFNRGEC
2.5	0.77	0.00024	310000	humanized antibody No. 93 (antibody, human IgG1, kappa, human Ig kappa; also called L2-4/HA1) heavy: QVQLVQSGSELKKPGASVKVSCKASGYTFTDYSMHWVRQAPGQGLEWMGWINTETGEPTYAQGFTGRFVFSLDTSVSTAYLQISSLKAEDTAVYYCARIPLYYYGSRYWYFDVWGQGTTVTVSSASTKGPSVFPLAPSSKSTSGGTAALGCLVKDYFPEPVTVSWNSGALTSGVHTFPAVLQSSGLYSLSSVVTVPSSSLGTQTYICNVNHKPSNTKVDKRVEPKSCDKTHTCPPCPAPPAAAPSVFLFPPKPKDTLMISRTPEVTCVVVDVSHEDPEVQFNWYVDGVEVHNAKTKPREEQFNSTFRVVSVLTVVHQDWLNGKEYKCKVSNKGLPAPIEKTISKTKGQPREPQVYTLPPSREEMTKNQVSLTCLVKGFYPSDIAVEWESNGQPENNYKTTPPMLDSDGSFFLYSKLTVDKSRWQQGNVFSCSVMHEALHNHYTQKSLSLSPG light: EIVMTQSPATLSVSPGERATLSCRASENIYRNLAWYQQKPGQSPRLLIYAATNLADGIPARFSGSGSGTEYTLTISSLQSEDFAVYYCQHFWGTPWTFGQGTKVEIKRTVAAPSVFIFPPSDEQLKSGTASVVCLLNNFYPREAKVQWKVDNALQSGNSQESVTEQDSKDSTYSLSSTLTLSKADYEKHKVYACEVTHQGLSSPVTKSFNRGEC
2.4	0.93	0.00027	290000	humanized antibody No. 73 (antibody, human IgG1, kappa, human Ig kappa; also called L2-4/HK4) heavy: QIQLVQSGSELKKPGASVKVSCKASGYTFTDYSMHWVRQAPGQGLKWMGWINTETGEPTYADDFKGRFVFSLDTSVSTAYLQISSLKAEDTAVYYCARIPLYYYGSRYWYFDVWGQGTTVTVSSASTKGPSVFPLAPSSKSTSGGTAALGCLVKDYFPEPVTVSWNSGALTSGVHTFPAVLQSSGLYSLSSVVTVPSSSLGTQTYICNVNHKPSNTKVDKRVEPKSCDKTHTCPPCPAPPAAAPSVFLFPPKPKDTLMISRTPEVTCVVVDVSHEDPEVQFNWYVDGVEVHNAKTKPREEQFNSTFRVVSVLTVVHQDWLNGKEYKCKVSNKGLPAPIEKTISKTKGQPREPQVYTLPPSREEMTKNQVSLTCLVKGFYPSDIAVEWESNGQPENNYKTTPPMLDSDGSFFLYSKLTVDKSRWQQGNVFSCSVMHEALHNHYTQKSLSLSPG light: EIVMTQSPATLSVSPGERATLSCRASENIYRNLAWYQQKPGQSPRLLIYAATNLADGIPARFSGSGSGTEYTLTISSLQSEDFAVYYCQHFWGTPWTFGQGTKVEIKRTVAAPSVFIFPPSDEQLKSGTASVVCLLNNFYPREAKVQWKVDNALQSGNSQESVTEQDSKDSTYSLSSTLTLSKADYEKHKVYACEVTHQGLSSPVTKSFNRGEC
